B1: CPEB3 Ribozyme (parent)
chain: GGGGGCCACAGCAGAAGCGUUCACGUCGCGGCCCCUGUCAGAUUCUGGUGAAUCUGCGAAUUCUGCUGU

Variants of: B1
Assay: self-cleavage, relative activity (ratio to wild type); higher = more cleavage; co-transcriptional

Variant | self-cleavage
GGGGGCCACAGCAGAAGCGUUCACGUCGCGGCCCCUGGCUGAUUCUGGUGAAUCUGCGAAUUCUGCUGU | 0.179
GGGGGCCACAGCAGAAGCGUUCACGUCGCGGCCCCUGGCGGAUUCUGGUGAAUCUGCGAAUUCUGCUGU | 0.257
GGGGGCCACAGCAGAAGCGUUCACGUCGCGGCCCCUGGCCGAUUCUGGUGAAUCUGCGAAUUCUGCUGU | 0.17
GGGGGCCACAGCAGAAGCGUUCACGUCGCGGCCCCUGCCAGAUUCUGGAGAAUCUGCGAAUUCUGCUGU | 0.955
GGGGGCCACAGCAGAAGCGUUCACGUCGCGGCCCCUGACAGAUUCUGGUGAAUCUGCGAAUUCUGCUGC | 1.03
GGGGGCCACAGCAGAAGCGUUCACGUCGCGGCCCCUGACAGAUUCUGGUGAAUCUGCGAAUUCUGCUGG | 0.971
GGGGGCCACAGCAGAAGCGUUCACGUCGCGGCCCCUGCCAGAUUCUCGUGAAUCUGCGAAUUCUGCUGU | 0.938
GGGGGCCACAGCAGAAGCGUUCACGUCGCGGCCCCUGCCAGAUUCUGGUGAAUCUGAGAAUUCUGCUGU | 0.3
GGGGGCCACAGCAGAAGCGUUCACGUCGCGGCCCCUGCCAGAUUCUGGUGAAUCUGUGAAUUCUGCUGU | 0.409
GGGGGCCACAGCAGAAGCGUUCACGUCGCGGCCCCUGACAGAUUCUGGUGAAUCUGCGAAUGCUGCUGU | 0.742
GGGGGCCACAGCAGAAGCGUUCACGUCGCGGCCCCUGCCAGAUUCUGGUGAAUCUGCGAAGUCUGCUGU | 0.759
GGGGGCCACAGCAGAAGCGUUCACGUCGCGGCCCCUGCCAGAUUCUGGUGAAUCUGCGAAAUCUGCUGU | 0.759
GGGGGCCACAGCAGAAGCGUUCACGUCGCGGCCCCUGACAGAUUCUGGUGAAUAUGCGAAUUCUGCUGU | 0.797
GGGGGCCACAGCAGAAGCGUUCACGUCGCGGCCCCUGACAGAUUCUGGUGAAUGUGCGAAUUCUGCUGU | 0.8
GGGGGCCACAGCAGAAGCGUUCACGUCGCGGCCCCUGGCAGAUUCUCGUGAAUCUGCGAAUUCUGCUGU | 0.201
GGGGGCCACAGCAGAAGCGUUCACGUCGCGGCCCCUGACAGAUUCUGGUGAAUCUCCGAAUUCUGCUGU | 0.466
GGGGGCCACAGCAGAAGCGUUCACGUCGCGGCCCCUGACAGAUUCUGGUGAAUCUUCGAAUUCUGCUGU | 0.875
GGGGGCCACAGCAGAAGCGUUCACGUCGCGGCCCCUGCCAGAUUCUGGUGAAUCGGCGAAUUCUGCUGU | 0.242
GGGGGCCACAGCAGAAGCGUUCACGUCGCGGCCCCUGCCAGAUUCUGGUGAAUCUGCGAAUUCUGUUGU | 0.947
GGGGGCCACAGCAGAAGCGUUCACGUCGCGGCCCCUGACAUAUUCUGGUGAAUCUGCGAAUUCUGCUGU | 0.795

Variant | self-cleavage
GGGGGCCACAGCAGAAGCGUUCACGUCGCGGCCCCUGACAAAUUCUGGUGAAUCUGCGAAUUCUGCUGU | 0.718
GGGGGCCACAGCAGAAGCGUUCACGUCGCGGCCCCUGGUAGAUUCUGGUGAAUCUGCGAAUUCUGCUGU | 0.322
GGGGGCCACAGCAGAAGCGUUCACGUCGCGGCCCCUGGGAGAUUCUGGUGAAUCUGCGAAUUCUGCUGU | 1.01
GGGGGCCACAGCAGAAGCGUUCACGUCGCGGCCCCUGCCAGAUUCUGGUGAAUCUGCGAAUACUGCUGU | 0.791
GGGGGCCACAGCAGAAGCGUUCACGUCGCGGCCCCUGACAGAUUCUGGUAAAUCUGCGAAUUCUGCUGU | 0.952
GGGGGCCACAGCAGAAGCGUUCACGUCGCGGCCCCUGACAGAUUCUGGUGAAUCUGCGAAUUCGGCUGU | 0.858
GGGGGCCACAGCAGAAGCGUUCACGUCGCGGCCCCUGACAGAUUCUGGUGAAUCUGCGAAUUCAGCUGU | 0.799
GGGGGCCACAGCAGAAGCGUUCACGUCGCGGCCCCUGCCAGAUUCUGGUUAAUCUGCGAAUUCUGCUGU | 0.952
GGGGGCCACAGCAGAAGCGUUCACGUCGCGGCCCCUGGCAAAUUCUGGUGAAUCUGCGAAUUCUGCUGU | 0.245
GGGGGCCACAGCAGAAGCGUUCACGUCGCGGCCCCUGGCAUAUUCUGGUGAAUCUGCGAAUUCUGCUGU | 0.238
GGGGGCCACAGCAGAAGCGUUCACGUCGCGGCCCCUGCCAGAUUGUGGUGAAUCUGCGAAUUCUGCUGU | 0.92
GGGGGCCACAGCAGAAGCGUUCACGUCGCGGCCCCUGACAGAAUCUGGUGAAUCUGCGAAUUCUGCUGU | 0.784
GGGGGCCACAGCAGAAGCGUUCACGUCGCGGCCCCUGGCAGAUUCUGGUGAAUCUGCGAAUUCUGCUGU | 0.242
GGGGGCCACAGCAGAAGCGUUCACGUCGCGGCCCCUGCCAGAUUCUGGUGAAUCUGCGAAUUCUGCUGU | 0.961
GGGGGCCACAGCAGAAGCGUUCACGUCGCGGCCCCUGCCAGAUUCUGGUGAAUAUGCGAAUUCUGCUGU | 0.61
GGGGGCCACAGCAGAAGCGUUCACGUCGCGGCCCCUGACAGAUUCUGGUGAAUCUGCGAAUUCUGCUAU | 0.922
GGGGGCCACAGCAGAAGCGUUCACGUCGCGGCCCCUGACAGAUUCUGGUGAAUCUGCGAAUUCUGCCGU | 0.943
GGGGGCCACAGCAGAAGCGUUCACGUCGCGGCCCCUGCCAGAUUCUGGUGAAUCUGCGAAUUGUGCUGU | 0.693
GGGGGCCACAGCAGAAGCGUUCACGUCGCGGCCCCUGCCAGAUUCUGGUGAAUCUGCGAAUUAUGCUGU | 0.71
